# Measurements published in PMC12808825, “Structural and functional modulation of human kynurenine aminotransferase I enhances selenium-driven redox metabolism for cancer therapy” (Redox Biology, 2025).
# B1: Human kynurenine aminotransferase 1 (hKYAT1), wild-type, recombinant (enzyme)
# chain: MAKQLQARRLDGIDYNPWVEFVKLASEHDVVNLGQGFPDFPPPDFAVEAFQHAVSGDFMLNQYTKTFGYPPLTKILASFFGELLGQEIDPLRNVLVTVGGYGALFTAFQALVDEGDEVIIIEPFFDCYEPMTMMAGGRPVFVSLKPGPIQNGELGSSSNWQLDPMELAGKFTSRTKALVLNTPNNPLGKVFSREELELVASLCQQHDVVCITDEVYQWMVYDGHQHISIASLPGMWERTLTIGSAGKTFSATGWKVGWVLGPDHIMKHLRTVHQNSVFHCPTQSQAAVAESFEREQLLFRQPSSYFVQFPQAMQRCRDHMIRSLQSVGLKPIIPQGSYFLITDISDFKRKMPDLPGAVDEPYDRRFVKWMIKNKGLVAIPVSIFYSVPHQKHFDHYIRFCFVKDEATLQAMDEKLRKWKVEL
# notes: human kynurenine aminotransferase 1 (KYAT1), wild type; The PDB entries are cited crystal structures of human KYAT1, not necessarily of this construct; also called KAT1; cysteine-S-conjugate beta-lyase 1; source: E. coli BL21, purified (His Trap Nickel column, size-exclusion chromatography)
# Molecular target: the molecule itself
# Experiment: SEC; size-exclusion chromatography after elution from the His Trap Nickel column; estimated apparent molecular weight 113 kDa
protein,measurement,value
B1,stoichiometry N,2
